In patent US20170342144A1 (Sanofi, published 2017):

Legend:
Test in all cases: Biacore off-rate vs wt GC1008, 50 nM
human TGFβ2 = molecular target: T1, human TGFβ2 (human, UniProt P61812 303-414)
T1 construct: also called TGFβ2 homodimer
T1 sequence: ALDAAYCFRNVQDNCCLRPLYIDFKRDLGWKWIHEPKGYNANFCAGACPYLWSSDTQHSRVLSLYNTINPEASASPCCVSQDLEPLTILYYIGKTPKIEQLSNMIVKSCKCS
Excerpt: (§1) Plasmids encoding either the GC1008 heavy chain or light chain were used as a template in PCR-based mutagenesis reactions. Mutations to the encoding DNA were made to create 155 single amino acid substitutions of the encoded heavy chain amino acid sequence and one single amino acid substitution of the encoded light chain amino acid sequence. A QuikChange® Lightning Site-Directed Mutagenesis kit (Agilent Technologies, Santa Clara Calif.) was used according to the manufacturer's instructions to create DNA mutations using a set of forward and reverse primers, either designed for a specific amino acid or for all 20 amino acids with a degenerate codon (NNK). After sequencing confirmation, identified mutant DNA was paired with a wild-type light or heavy chain DNA for transfection into an Expi293F™ host cell suspension (Life Techonologies Corp., Grand Island, N.Y.). At 4 days post-transfection, conditioned media (1 mL) was harvested and purified using a 1 mL Protein A PhyTip® column (PhyNexus, Inc., San Jose, Calif.) and a PureSpeed™ 12-channel pipette (Rainin Instrument LLC, Oakland, Calif.). Purified variant antibody samples were analyzed in duplicate on a Biacore® 3000 (GE Healthcare) at 50 nM concentrations, using the 100 RU level TGFβ1, 2, and 3 immobilized surfaces. The off-rate (kd) of the variants was divided by the kd of the wild-type control to obtain the fold change in the kd. […] A heat map was generated to visualize the results. Variants that completely lost affinity for TGFβ were shown in red without numbers.

human TGFβ1 = molecular target: T2, human TGFβ1 (human, UniProt P01137 279-390)
T2 construct: also called TGFβ1 homodimer
T2 sequence (P01137 279-390 limits assumed): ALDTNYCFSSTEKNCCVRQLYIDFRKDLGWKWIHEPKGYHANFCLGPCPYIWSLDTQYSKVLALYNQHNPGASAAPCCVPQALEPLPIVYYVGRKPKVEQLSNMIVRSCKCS
Excerpt: as §1

human TGFβ3 = molecular target: T3, human TGFβ3 (human, UniProt P10600 301-412)
T3 sequence: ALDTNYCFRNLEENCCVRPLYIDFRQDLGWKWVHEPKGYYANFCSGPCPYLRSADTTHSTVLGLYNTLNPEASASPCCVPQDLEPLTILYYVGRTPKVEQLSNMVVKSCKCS
Excerpt: as §1

Row | Binder | kd var/kd wt (human TGFβ2) | kd var/kd wt (human TGFβ1) | kd var/kd wt (human TGFβ3)
1 | D56P (antibody, V domains shown, GC1008 IgG4 variant) VH: QVQLVQSGAEVKKPGSSVKVSCKASGYTFSSNVISWVRQAPGQGLEWMGGVIPIVPIANYAQRFKGRVTITADESTSTTYMELSSLRSEDTAVYYCASTLGLVLDAMDYWGQGTLVTVSS VL: ETVLTQSPGTLSLSPGERATLSCRASQSLGSSYLAWYQQKPGQAPRLLIYGASSRAPGIPDRFSGSGSGTDFTLTISRLEPEDFAVYYCQQYADSPITFGQGTRLEIK | 1.9 |  | 
2 | I52P (antibody, V domains shown, GC1008 IgG4 variant) VH: QVQLVQSGAEVKKPGSSVKVSCKASGYTFSSNVISWVRQAPGQGLEWMGGVPPIVDIANYAQRFKGRVTITADESTSTTYMELSSLRSEDTAVYYCASTLGLVLDAMDYWGQGTLVTVSS VL: ETVLTQSPGTLSLSPGERATLSCRASQSLGSSYLAWYQQKPGQAPRLLIYGASSRAPGIPDRFSGSGSGTDFTLTISRLEPEDFAVYYCQQYADSPITFGQGTRLEIK | 1.9 |  | 
3 | E74H (antibody, V domains shown, GC1008 IgG4 variant) VH: QVQLVQSGAEVKKPGSSVKVSCKASGYTFSSNVISWVRQAPGQGLEWMGGVIPIVDIANYAQRFKGRVTITADHSTSTTYMELSSLRSEDTAVYYCASTLGLVLDAMDYWGQGTLVTVSS VL: ETVLTQSPGTLSLSPGERATLSCRASQSLGSSYLAWYQQKPGQAPRLLIYGASSRAPGIPDRFSGSGSGTDFTLTISRLEPEDFAVYYCQQYADSPITFGQGTRLEIK |  | 0.9 | 
4 | E74Q (antibody, V domains shown, GC1008 IgG4 variant) VH: QVQLVQSGAEVKKPGSSVKVSCKASGYTFSSNVISWVRQAPGQGLEWMGGVIPIVDIANYAQRFKGRVTITADQSTSTTYMELSSLRSEDTAVYYCASTLGLVLDAMDYWGQGTLVTVSS VL: ETVLTQSPGTLSLSPGERATLSCRASQSLGSSYLAWYQQKPGQAPRLLIYGASSRAPGIPDRFSGSGSGTDFTLTISRLEPEDFAVYYCQQYADSPITFGQGTRLEIK | 0.8 | 1.2 | 
5 | S30H (antibody, V domains shown, GC1008 IgG4 variant) VH: QVQLVQSGAEVKKPGSSVKVSCKASGYTFHSNVISWVRQAPGQGLEWMGGVIPIVDIANYAQRFKGRVTITADESTSTTYMELSSLRSEDTAVYYCASTLGLVLDAMDYWGQGTLVTVSS VL: ETVLTQSPGTLSLSPGERATLSCRASQSLGSSYLAWYQQKPGQAPRLLIYGASSRAPGIPDRFSGSGSGTDFTLTISRLEPEDFAVYYCQQYADSPITFGQGTRLEIK | 0.8 | 0.9 | 
6 | E74D (antibody, V domains shown, GC1008 IgG4 variant) VH: QVQLVQSGAEVKKPGSSVKVSCKASGYTFSSNVISWVRQAPGQGLEWMGGVIPIVDIANYAQRFKGRVTITADDSTSTTYMELSSLRSEDTAVYYCASTLGLVLDAMDYWGQGTLVTVSS VL: ETVLTQSPGTLSLSPGERATLSCRASQSLGSSYLAWYQQKPGQAPRLLIYGASSRAPGIPDRFSGSGSGTDFTLTISRLEPEDFAVYYCQQYADSPITFGQGTRLEIK | 0.8 | 0.9 | 
7 | I54S (antibody, V domains shown, GC1008 IgG4 variant) VH: QVQLVQSGAEVKKPGSSVKVSCKASGYTFSSNVISWVRQAPGQGLEWMGGVIPSVDIANYAQRFKGRVTITADESTSTTYMELSSLRSEDTAVYYCASTLGLVLDAMDYWGQGTLVTVSS VL: ETVLTQSPGTLSLSPGERATLSCRASQSLGSSYLAWYQQKPGQAPRLLIYGASSRAPGIPDRFSGSGSGTDFTLTISRLEPEDFAVYYCQQYADSPITFGQGTRLEIK | 1.7 |  | 
8 | E74G (antibody, V domains shown, GC1008 IgG4 variant) VH: QVQLVQSGAEVKKPGSSVKVSCKASGYTFSSNVISWVRQAPGQGLEWMGGVIPIVDIANYAQRFKGRVTITADGSTSTTYMELSSLRSEDTAVYYCASTLGLVLDAMDYWGQGTLVTVSS VL: ETVLTQSPGTLSLSPGERATLSCRASQSLGSSYLAWYQQKPGQAPRLLIYGASSRAPGIPDRFSGSGSGTDFTLTISRLEPEDFAVYYCQQYADSPITFGQGTRLEIK | 0.7 | 1 | 
9 | E74A (antibody, V domains shown, GC1008 IgG4 variant) VH: QVQLVQSGAEVKKPGSSVKVSCKASGYTFSSNVISWVRQAPGQGLEWMGGVIPIVDIANYAQRFKGRVTITADASTSTTYMELSSLRSEDTAVYYCASTLGLVLDAMDYWGQGTLVTVSS VL: ETVLTQSPGTLSLSPGERATLSCRASQSLGSSYLAWYQQKPGQAPRLLIYGASSRAPGIPDRFSGSGSGTDFTLTISRLEPEDFAVYYCQQYADSPITFGQGTRLEIK |  | 1 | 
10 | S30A (antibody, V domains shown, GC1008 IgG4 variant) VH: QVQLVQSGAEVKKPGSSVKVSCKASGYTFASNVISWVRQAPGQGLEWMGGVIPIVDIANYAQRFKGRVTITADESTSTTYMELSSLRSEDTAVYYCASTLGLVLDAMDYWGQGTLVTVSS VL: ETVLTQSPGTLSLSPGERATLSCRASQSLGSSYLAWYQQKPGQAPRLLIYGASSRAPGIPDRFSGSGSGTDFTLTISRLEPEDFAVYYCQQYADSPITFGQGTRLEIK |  | 0.7 | 
11 | I52F (antibody, V domains shown, GC1008 IgG4 variant) VH: QVQLVQSGAEVKKPGSSVKVSCKASGYTFSSNVISWVRQAPGQGLEWMGGVFPIVDIANYAQRFKGRVTITADESTSTTYMELSSLRSEDTAVYYCASTLGLVLDAMDYWGQGTLVTVSS VL: ETVLTQSPGTLSLSPGERATLSCRASQSLGSSYLAWYQQKPGQAPRLLIYGASSRAPGIPDRFSGSGSGTDFTLTISRLEPEDFAVYYCQQYADSPITFGQGTRLEIK | 1.9 |  | 2
12 | E74S (antibody, V domains shown, GC1008 IgG4 variant) VH: QVQLVQSGAEVKKPGSSVKVSCKASGYTFSSNVISWVRQAPGQGLEWMGGVIPIVDIANYAQRFKGRVTITADSSTSTTYMELSSLRSEDTAVYYCASTLGLVLDAMDYWGQGTLVTVSS VL: ETVLTQSPGTLSLSPGERATLSCRASQSLGSSYLAWYQQKPGQAPRLLIYGASSRAPGIPDRFSGSGSGTDFTLTISRLEPEDFAVYYCQQYADSPITFGQGTRLEIK | 0.7 | 0.8 | 
13 | I54Q (antibody, V domains shown, GC1008 IgG4 variant) VH: QVQLVQSGAEVKKPGSSVKVSCKASGYTFSSNVISWVRQAPGQGLEWMGGVIPQVDIANYAQRFKGRVTITADESTSTTYMELSSLRSEDTAVYYCASTLGLVLDAMDYWGQGTLVTVSS VL: ETVLTQSPGTLSLSPGERATLSCRASQSLGSSYLAWYQQKPGQAPRLLIYGASSRAPGIPDRFSGSGSGTDFTLTISRLEPEDFAVYYCQQYADSPITFGQGTRLEIK | 1.8 |  | 
14 | V55M (antibody, V domains shown, GC1008 IgG4 variant) VH: QVQLVQSGAEVKKPGSSVKVSCKASGYTFSSNVISWVRQAPGQGLEWMGGVIPIMDIANYAQRFKGRVTITADESTSTTYMELSSLRSEDTAVYYCASTLGLVLDAMDYWGQGTLVTVSS VL: ETVLTQSPGTLSLSPGERATLSCRASQSLGSSYLAWYQQKPGQAPRLLIYGASSRAPGIPDRFSGSGSGTDFTLTISRLEPEDFAVYYCQQYADSPITFGQGTRLEIK | 1.7 |  | 
15 | E74Y (antibody, V domains shown, GC1008 IgG4 variant) VH: QVQLVQSGAEVKKPGSSVKVSCKASGYTFSSNVISWVRQAPGQGLEWMGGVIPIVDIANYAQRFKGRVTITADYSTSTTYMELSSLRSEDTAVYYCASTLGLVLDAMDYWGQGTLVTVSS VL: ETVLTQSPGTLSLSPGERATLSCRASQSLGSSYLAWYQQKPGQAPRLLIYGASSRAPGIPDRFSGSGSGTDFTLTISRLEPEDFAVYYCQQYADSPITFGQGTRLEIK |  | 0.7 | 
16 | E74P (antibody, V domains shown, GC1008 IgG4 variant) VH: QVQLVQSGAEVKKPGSSVKVSCKASGYTFSSNVISWVRQAPGQGLEWMGGVIPIVDIANYAQRFKGRVTITADPSTSTTYMELSSLRSEDTAVYYCASTLGLVLDAMDYWGQGTLVTVSS VL: ETVLTQSPGTLSLSPGERATLSCRASQSLGSSYLAWYQQKPGQAPRLLIYGASSRAPGIPDRFSGSGSGTDFTLTISRLEPEDFAVYYCQQYADSPITFGQGTRLEIK |  | 0.8 | 
17 | E74T (antibody, V domains shown, GC1008 IgG4 variant) VH: QVQLVQSGAEVKKPGSSVKVSCKASGYTFSSNVISWVRQAPGQGLEWMGGVIPIVDIANYAQRFKGRVTITADTSTSTTYMELSSLRSEDTAVYYCASTLGLVLDAMDYWGQGTLVTVSS VL: ETVLTQSPGTLSLSPGERATLSCRASQSLGSSYLAWYQQKPGQAPRLLIYGASSRAPGIPDRFSGSGSGTDFTLTISRLEPEDFAVYYCQQYADSPITFGQGTRLEIK | 0.9 | 0.8 | 
18 | I54G (antibody, V domains shown, GC1008 IgG4 variant) VH: QVQLVQSGAEVKKPGSSVKVSCKASGYTFSSNVISWVRQAPGQGLEWMGGVIPGVDIANYAQRFKGRVTITADESTSTTYMELSSLRSEDTAVYYCASTLGLVLDAMDYWGQGTLVTVSS VL: ETVLTQSPGTLSLSPGERATLSCRASQSLGSSYLAWYQQKPGQAPRLLIYGASSRAPGIPDRFSGSGSGTDFTLTISRLEPEDFAVYYCQQYADSPITFGQGTRLEIK | 1.8 |  | 
